Consider 1 molecule from patent US20120107364A1 (ACTGEN, published 2012).

Assay [1] concerns the target T1, PODXL2, positions 1 to 330 (human, UniProt O00592 23-362).
T1 construct: One of the 14 C-terminal truncations; Expressed on Ba/F3 cells; also called R330
T1 sequence: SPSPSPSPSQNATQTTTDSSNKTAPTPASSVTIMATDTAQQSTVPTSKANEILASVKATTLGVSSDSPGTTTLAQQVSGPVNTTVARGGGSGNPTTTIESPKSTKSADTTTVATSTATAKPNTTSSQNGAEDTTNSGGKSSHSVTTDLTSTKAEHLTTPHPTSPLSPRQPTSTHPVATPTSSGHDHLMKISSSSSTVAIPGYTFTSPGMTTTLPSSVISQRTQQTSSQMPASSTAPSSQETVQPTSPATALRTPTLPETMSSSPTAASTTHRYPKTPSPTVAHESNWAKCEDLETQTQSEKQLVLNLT
The experiment in a line: flow cytometry on Ba/F3 cells expressing the truncated PODXL2. The method, then:
(§1) To each sample of the cell suspension, 50 μl of the hybridoma culture supernatant or 2-μg/ml of the purified antibody (hereinafter, referred to as an “antibody solution”) was added, and the antibody was reacted with the cells. As an isotype control of the antibody solution, a wash buffer containing 2 μg/ml of each of mouse IgG1 (BioLegend, 400412), mouse IgG2a (BioLegend, 400224), and mouse IgG2b (BioLegend, 400324) was used. The hybridoma culture supernatant was reacted with the target cells at room temperature for 30 minutes, followed by centrifugation at 700×g for 2 minutes. Then, a culture supernatant was removed. Further, 100 μl of a wash buffer was added, followed by centrifugation at 700×g for 2 minutes again. A supernatant was removed. Then, the cells were washed.
(§2) Next, to the cell pellets after the washing, 50 μl of Goat anti-mouse IgG, F(ab′) 2-PE (PE=phycoerythrin, Beckman Coulter, IM0855) diluted 200-fold with a wash buffer was added as a secondary antibody for detection, and reacted in the dark at room temperature for 30 minutes. The reaction was followed by centrifugation at 700×g for 2 minutes. A supernatant was removed. Further, 100 μl of a wash buffer was added, followed by centrifugation at 700×g for 2 minutes again. A supernatant was removed. Then, the cells were washed. Thereafter, the cells were suspended in an appropriate amount of a wash buffer. The reactivity between the antibody and the cells was analyzed by a flow cytometer (Beckman Coulter, FC500 MPL).
(§3) Thereafter, by the same method as in Example 1 (4) (the virus packaging and thereafter), Ba/F3 cells containing the PODXL2 gene sequences of various chain lengths were prepared. Further, by the same method as in Example 4, the reactivity between the ACT36-27_{—}5D1 antibody and the Ba/F3 cells expressing the PODXL2 molecules of various chain lengths was analyzed by a flow cytometer (FIG. 10).
A general note: Flow cytometry measures light scatter and fluorescence of single cells or particles in a stream.

Assay [2] has as its target T2, PODXL2, positions 1 to 300 (human, UniProt O00592 23-332).
T2 construct: Shortest of the 14 C-terminal truncations; Expressed on Ba/F3 cells; also called R300
T2 sequence: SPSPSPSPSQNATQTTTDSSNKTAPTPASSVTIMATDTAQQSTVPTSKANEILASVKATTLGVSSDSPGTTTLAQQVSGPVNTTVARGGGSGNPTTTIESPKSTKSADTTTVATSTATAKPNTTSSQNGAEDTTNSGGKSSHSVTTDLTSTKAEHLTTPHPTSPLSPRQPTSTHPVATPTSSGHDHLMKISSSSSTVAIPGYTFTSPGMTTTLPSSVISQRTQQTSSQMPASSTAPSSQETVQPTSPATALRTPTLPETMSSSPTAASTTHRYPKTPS
The description is as above. Here is the method: as §1, §2, §3

The target of assay [3] is T3, PODXL2, positions 1 to 340 (human, UniProt O00592 23-372).
T3 construct: One of the 14 C-terminal truncations; Expressed on Ba/F3 cells; also called R340
T3 sequence: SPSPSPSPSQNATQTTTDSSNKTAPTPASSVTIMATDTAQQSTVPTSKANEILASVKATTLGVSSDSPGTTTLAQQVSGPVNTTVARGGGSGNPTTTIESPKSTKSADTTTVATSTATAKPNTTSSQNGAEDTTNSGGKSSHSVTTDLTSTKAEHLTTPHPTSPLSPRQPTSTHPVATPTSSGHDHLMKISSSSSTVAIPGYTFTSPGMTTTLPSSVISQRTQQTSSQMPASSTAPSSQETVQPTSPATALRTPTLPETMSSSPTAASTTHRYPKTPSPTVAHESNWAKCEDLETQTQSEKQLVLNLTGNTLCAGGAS
The description is as above. The method, then: as §1, §2, §3

For assay [4], the target named is T4, human-derived PODXL2 protein (Homo sapiens podocalyxin-like (PODXL), transcript variant 2, NM-005397.3), full … (human, UniProt O00592 23-558).
T4 construct: 526 amino acids; also called full-length PODXL2 gene
T4 sequence: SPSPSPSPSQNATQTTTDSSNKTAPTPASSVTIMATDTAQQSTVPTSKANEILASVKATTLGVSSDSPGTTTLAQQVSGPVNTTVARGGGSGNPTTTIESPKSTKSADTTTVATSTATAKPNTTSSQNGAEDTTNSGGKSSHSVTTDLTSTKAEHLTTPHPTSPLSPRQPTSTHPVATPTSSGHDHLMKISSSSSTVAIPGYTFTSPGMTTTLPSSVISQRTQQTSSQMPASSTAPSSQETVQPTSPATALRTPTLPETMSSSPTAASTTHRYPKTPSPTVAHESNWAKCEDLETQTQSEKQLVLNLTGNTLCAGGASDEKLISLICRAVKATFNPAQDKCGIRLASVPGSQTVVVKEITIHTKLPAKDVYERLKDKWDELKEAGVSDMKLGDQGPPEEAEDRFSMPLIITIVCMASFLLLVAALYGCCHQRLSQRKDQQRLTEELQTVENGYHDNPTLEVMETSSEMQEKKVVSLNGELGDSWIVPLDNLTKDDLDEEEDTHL
The experiment in a line: flow cytometry on Ba/F3 cells expressing PODXL2 against negative control Ba/F3 cells (FIG. 1). Here is the method:
as §1
as §2, with “Then, the cells were washed. Thereafter, the cells were suspended in an appropriate amount of a wash buffer.” left out

B1: ACT36-27-5D1 antibody (antibody, V domains shown)
VH: EVQLQQSGPELVKPGASVKMSCKASGYTFTSYVMHWVKQKPGQGLEWIGYIHPYNDGIKYNEKFKGKATLTSDKSSSTAYMDLSSLTSEDSAVYYCARSWDWYFDVWAAGTTVTVSS
VL: QIVLTQSPAIMSASPGEKVSMTCSASSSVSYMHWYQQKSGTSPKRWIYDTSKLASGVPARFSGSGSGTSYSLTISSMEAEDAATYYCLQWSSNPPTFGGGTKLE
notes: also called anti-PODXL2 antibody ACT36-27-5D1; anti-ACT36-27-5D1 monoclonal antibody
Consider B1, for which the binding result in assay [1] was “no binding”; in assay [2] it was “no binding”; in assay [3], “no binding”; in assay [4] it was “binds”.
